Measurements: patent publication US20250075192

Target: T1, Wild type RepD from Staphylococcus aureus, as oriD DNA-RepD adduct
T1 chain: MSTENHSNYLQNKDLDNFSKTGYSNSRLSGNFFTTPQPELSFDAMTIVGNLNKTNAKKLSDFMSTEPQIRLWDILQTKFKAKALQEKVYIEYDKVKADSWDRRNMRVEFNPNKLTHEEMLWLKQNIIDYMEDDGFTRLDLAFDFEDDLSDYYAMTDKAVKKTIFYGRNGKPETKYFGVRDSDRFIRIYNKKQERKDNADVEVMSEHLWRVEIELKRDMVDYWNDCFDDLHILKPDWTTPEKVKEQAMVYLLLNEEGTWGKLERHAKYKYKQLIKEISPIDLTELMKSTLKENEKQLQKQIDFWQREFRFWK

B1: PcrA-DM1, a double cysteine mutant of PcrA, stochastically labeled with a mixture of donor and acceptor fluorophores (protein)
chain: MNFLSEQLLAHLNKEQQEAVRTTEGPLLIMAGAGSGKTRVLTHRIAYLMAEKHVAPWNILAITFTNKAAREMRERVQSLLGGAAEDVWISTFHSMAVRILRRDIDRIGINRNFSILDPTDQLSVMKTILKEKNIDPKKFEPRTILGTISAAKNELLPPEQFAKRASTYYEKVVSDVYQEYQQRLLRCHSLDFDDLIMTTIQLFDRVPDVLHYYQYKFQYIHIDEYQDTNRAQYTLVKKLAERFQNIAAVGDADQSIYRWRGADIQNILSFERDYPNAKVILLEQNYRSTKRILQAANEVIEHNVNRKPKRIWTENPEGKPILYYEAMNEADEAQFVAGRIREAVERGERRYRDFAVLYRTNAQSRVMEEMLLKANIPYQIVGGLKFYDRKEIKDILAYLRVIANPDDDCSLLRIINVPKRGIGASTIDKLVRYAADHELSLFEALGELEMIGLGAKAAGALAAFRSQLEQWTQLQEYVSVTELVEEVLDKSGYREMLKAERTIEAQSRLENLDEFLSVTKHFENVSDDKSLIAFLTDLALISDLDELDGTEQAAEGDAVMLMTLHAAKGLEFPVVFLIGMEEGIFPHNRSLEDDDEMEEERRLAYVGITRAEEELVLTSAQMRTLFGNIQMDPPSRFLNEIPAHLLETASRRQAGASRPAVSRPQASGAVGSWKVGDRANHRKWGIGTVVSVRGGGDDQELDIAFPSPIGIKRLLAKFAPIEKV
- EFRET distribution of dual labeled PcrA-DM1 (smFRET, intramolecular conformation of PcrA): the presence of RepD indeed biases PcrA toward the closed high EFRET conformation
